Molecular target: T1, IKKα-NEMO interaction (Homo sapiens, UniProt Q9Y6K9)
T1 construct: bacterially expressed version of full length NEMO fused at its NH2-terminus to glutathione S-transferase; made in house; host or cells: bacteria (GST-NEMO); in vitro transcription/translation (IKKα)
Experiment: GST pull-down of IKKα by GST-NEMO in the presence of NBD peptide
Assay type: binding
Details: peptide 500 and 1000 μM
Protocol: (A) Sequences of the NBD wild type (SEQ ID NO:177) and scrambled control peptides (SEQ ID NO:178). The wild type peptide corresponds to residues 734 to 744 of IKKβ. (B) GST pull-down analysis was performed using GST-NEMO and in vitro transcribed and translated IKKα (upper panel) and IKKβ (middle panel) in the presence or absence of either vehicle (2% DMSO), scrambled or wild type NBD peptide (500 and 1000 μM of each peptide). […] (C) Densitometric analysis of autoradiograph bands obtained following GST pull-down of IKKa and IKKb using GST-NEMO in the presence of a range of concentrations of wild type NBD peptide. […] The data are presented as the pixel density as a percentage of control (no peptide) and represent means±sd (n=11). Analysis was performed using the NIH-Image software.

T1 sequence (Q9Y6K9 whole entry, the tested form may be a part): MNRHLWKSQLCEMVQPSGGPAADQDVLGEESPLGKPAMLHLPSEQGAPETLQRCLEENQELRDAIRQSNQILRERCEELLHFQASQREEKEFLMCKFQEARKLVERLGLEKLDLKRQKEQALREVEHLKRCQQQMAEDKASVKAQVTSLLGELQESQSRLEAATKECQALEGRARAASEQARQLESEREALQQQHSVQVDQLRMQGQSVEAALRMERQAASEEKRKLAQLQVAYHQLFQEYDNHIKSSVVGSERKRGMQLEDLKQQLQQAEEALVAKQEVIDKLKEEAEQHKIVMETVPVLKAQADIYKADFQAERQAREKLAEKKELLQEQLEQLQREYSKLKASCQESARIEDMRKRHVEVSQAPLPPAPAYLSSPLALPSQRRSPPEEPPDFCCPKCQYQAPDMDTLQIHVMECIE

interaction of IKKα with NEMO (GST pull-down): prevents
Substance: NBD wild type (SEQ ID NO:177): wild type peptide corresponding to residues 734 to 744 of IKKβ (FTALDWSWLQT; Description of Unknown: Unknown wildtype NBD peptide)

From patent US8242240B2, “Anti-inflammatory compounds and uses thereof” (Yale University, priority 2000, dated 2012)
